Changes are numbered by the printed parent chain.
T1: TRAB1 (Oryza sativa, UniProt Q6ZDF3 1-374)
T1 sequence: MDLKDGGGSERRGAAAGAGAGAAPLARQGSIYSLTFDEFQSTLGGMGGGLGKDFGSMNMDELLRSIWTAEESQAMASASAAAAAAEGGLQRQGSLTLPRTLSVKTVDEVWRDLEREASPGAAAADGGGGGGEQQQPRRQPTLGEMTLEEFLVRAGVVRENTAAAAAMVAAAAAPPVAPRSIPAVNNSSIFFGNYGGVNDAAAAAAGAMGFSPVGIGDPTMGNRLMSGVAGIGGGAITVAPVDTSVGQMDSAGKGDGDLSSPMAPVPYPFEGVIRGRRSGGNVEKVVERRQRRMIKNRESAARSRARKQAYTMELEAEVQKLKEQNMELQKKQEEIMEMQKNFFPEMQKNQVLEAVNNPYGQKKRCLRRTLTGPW

T2: OSBZ8 (Oryza sativa, UniProt Q40645 1-360)
T2 sequence: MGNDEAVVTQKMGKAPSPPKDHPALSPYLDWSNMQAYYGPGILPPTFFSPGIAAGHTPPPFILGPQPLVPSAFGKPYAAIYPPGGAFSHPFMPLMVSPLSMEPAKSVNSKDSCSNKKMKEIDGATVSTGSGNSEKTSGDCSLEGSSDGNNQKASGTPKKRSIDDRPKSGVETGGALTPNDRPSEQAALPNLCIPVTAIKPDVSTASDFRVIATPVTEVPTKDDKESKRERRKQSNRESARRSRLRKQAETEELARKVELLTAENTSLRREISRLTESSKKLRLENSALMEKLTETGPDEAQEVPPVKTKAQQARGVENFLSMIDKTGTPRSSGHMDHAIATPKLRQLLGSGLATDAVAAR

B1: Probe 6 (dsDNA)
DNA 1: TGTGGGACGGAGGGAGTACGTCACAAAAATTATGTTACAA
DNA 2: TTGTAACATAATTTTTGTGACGTACTCCCTCCGTCCCACA
B2: Probe 3 (dsDNA)
DNA 1: GTCATTTTGAGGGGCTGACGTTTGGTGGACAGCGCAGTTT
DNA 2: AAACTGCGCTGTCCACCAAACGTCAGCCCCTCAAAATGAC
B3: Probe 10 (dsDNA)
DNA 1: TCTTCATCTGACGTGGCATTGATGTGGTGCTTACGTGGCACTTCGA
DNA 2: TCGAAGTGCCACGTAAGCACCACATCAATGCCACGTCAGATGAAGA
B4: Probe 11 (dsDNA)
DNA 1: AATAAAAATGGTGGGACCCACGTGGGCCCCACAAGTCATTCT
DNA 2: AGAATGACTTGTGGGGCCCACGTGGGTCCCACCATTTTTATT
B5: Probe 14 (dsDNA)
DNA 1: B4 DNA 1 with A2G, T3G, A34T, T40C
DNA 2: B4 DNA 2 with A3G, T9A, A40C, T41C
B6: Probe 2 (dsDNA)
DNA 1: AGCTTTGAAACATTTTCCACGTTTCATGAACCAACACTCAAT
DNA 2: ATTGAGTGTTGGTTCATGAAACGTGGAAAATGTTTCAAAGCT
B7: Probe 12 (dsDNA)
DNA 1: AGTCAAATTAGCCACGTAGGCGACACGTCAGCTAAAACCGC
DNA 2: GCGGTTTTAGCTGACGTGTCGCCTACGTGGCTAATTTGACT
B8: Probe 1 (dsDNA)
DNA 1: ATCGTGTTCTTCGCCGGCACGTGGTAATGGGCAGAATCTCC
DNA 2: GGAGATTCTGCCCATTACCACGTGCCGGCGAAGAACACGAT
B9: Probe 7 (dsDNA)
DNA 1: TCCTACATACCCTCAGCACGTAAAGCGAGAAGTTTTATCT
DNA 2: AGATAAAACTTCTCGCTTTACGTGCTGAGGGTATGTAGGA
B10: Probe 5 (dsDNA)
DNA 1: ATAAGACAAGTGGTCAAACGTTGCAAACAAAAACTCAAAA
DNA 2: TTTTGAGTTTTTGTTTGCAACGTTTGACCACTTGTCTTAT
B11: Probe 8 (dsDNA)
DNA 1: GATAAGATTGCTCAGCAACGTAATCTTCATAGATCCACTT
DNA 2: AAGTGGATCTATGAAGATTACGTTGCTGAGCAATCTTATC
B12: Probe 13 (dsDNA)
DNA 1: CTTCATCTGACGTGACACTGACGTGGCGCTTACGTGGCAAGTTGA
DNA 2: TCAACTTGCCACGTAAGCGCCACGTCAGTGTCACGTCAGATGAAG
B13: Probe 9 (dsDNA)
DNA 1: TGTGGTTTTGGCTGACGTGGCGCCTACGTGGCGAATTTGACTC
DNA 2: GAGTCAAATTCGCCACGTAGGCGCCACGTCAGCCAAAACCACA
B14: Probe 4 (dsDNA)
DNA 1: TTGAGTTTTTGCTTGCAACGTTTGACCACTCGTCTTATTC
DNA 2: GAATAAGACGAGTGGTCAAACGTTGCAAGCAAAAACTCAA
B15: Mutant-13 (dsDNA)
DNA 1: CTTCATCTGGACACTGGGCGCTTGGCAAGTTGA
DNA 2: TCAACTTGCCAAGCGCCCAGTGTCCAGATGAAG
B16: Mutant-14 (dsDNA)
DNA 1: AGGAAAAATGGTGGGACCCGGGCCCCACATGTCATCCT
DNA 2: AGGATGACATGTGGGGCCCGGGTCCCACCATTTTTCCT
B17: Mutant-11 (dsDNA)
DNA 1: B16 DNA 1 with G2A, G3T, T30A, C36T
DNA 2: B16 DNA 2 with G3A, A9T, C36A, C37T
B18: Mutant-12 (dsDNA)
DNA 1: AGTCAAATTAGCCAGGCGACCAGCTAAAACCGC
DNA 2: GCGGTTTTAGCTGGTCGCCTGGCTAATTTGACT
B19: Mutant-9 (dsDNA)
DNA 1: TGTGGTTTTGGCTGGGCGCCTGGCGAATTTGACTC
DNA 2: GAGTCAAATTCGCCAGGCGCCCAGCCAAAACCACA
B20: Mutant-10 (dsDNA)
DNA 1: TCTTCATCTGGGCATTGATGTGGTGCTTGGCACTTCGA
DNA 2: TCGAAGTGCCAAGCACCACATCAATGCCCAGATGAAGA

biological target: T1, TRAB1; assay: EMSA; Chemiluminescent Nucleic Acid Detection Module Kit (Thermo) per manufacturer; binding buffer, salt, pH and temperature not stated; conditions: protein: recombinant; tags: His (pCold vector); chain copies: 2; label: biotin

**Q.** Does B1 bind?
**A.** Result: no binding

**Q.** Does B2 bind?
**A.** Result: no binding

**Q.** Does B3 bind?
**A.** Result: no binding

**Q.** Does B4 bind?
**A.** Result: no binding

**Q.** Does B5 bind?
**A.** Result: no binding

**Q.** Does B6 bind?
**A.** Result: no binding

**Q.** Does B7 bind?
**A.** Result: no binding

**Q.** Does B8 bind?
**A.** Result: no binding

**Q.** Does B9 bind?
**A.** Result: no binding

**Q.** Does B10 bind?
**A.** Result: no binding

**Q.** Does B11 bind?
**A.** Result: no binding

**Q.** Does B12 bind?
**A.** Result: no binding

**Q.** Does B13 bind?
**A.** Result: no binding

**Q.** Does B14 bind?
**A.** Result: no binding

biological target: T2, OSBZ8; assay: as above; conditions: protein: recombinant; tags: His (pCold vector); chain copies: 2; label: biotin

**Q.** Does B1 bind?
**A.** Result: no binding

**Q.** Does B2 bind?
**A.** Result: no binding

**Q.** Does B15 bind?
**A.** Result: no binding

**Q.** Does B6 bind?
**A.** Result: no binding

**Q.** Does B16 bind?
**A.** Result: no binding

**Q.** Does B17 bind?
**A.** Result: no binding

**Q.** Does B18 bind?
**A.** Result: no binding

**Q.** Does B8 bind?
**A.** Result: no binding

**Q.** Does B9 bind?
**A.** Result: no binding

**Q.** Does B10 bind?
**A.** Result: no binding

**Q.** Does B11 bind?
**A.** Result: no binding

**Q.** Does B19 bind?
**A.** Result: no binding

**Q.** Does B12 bind?
**A.** Result: binds

**Q.** Does B14 bind?
**A.** Result: no binding

**Q.** Does B20 bind?
**A.** Result: no binding

— article PMC7516004, “RICE CENTRORADIALIS 1, a TFL1-like Gene, Responses to Drought Stress and Regulates Rice Flowering Transition”
